Our source for the Kd values is the Immune Epitope Database (IEDB).

For the first experiment, the target named is HLA-A*68:01. The experiment is described as follows: IEDB peptide-MHC binding, purified MHC/competitive/radioactivity; filed as Kd, often an IC50 or EC50 that approximates it; ≥ and ≤ were set here for values at or beyond the usual limits of such assays. The note with it: source organism: Mammarenavirus juninense.
Take PLLCNLNKSH: the Kd is no less than 45800 nM.
Consider SWPVQCPLDH, for which the Kd is no less than 70100 nM.

The experiment is the same for the next values; noted with them: source organism: Mammarenavirus lassaense.
HSYAGDAAEH: the Kd was determined as 578 nM.
As for SGSCLNNEK, the Kd is 876 nM.

The same experiment, now with this note: source organism: SARS coronavirus Tor2.
As for RLYECLYRNR, the Kd turned out to be 229 nM.
As for VLAYMLFTK, the Kd came out at 7.96 nM.
For NVYADSFVVK, the Kd was 29.3 nM.

The experiment is the same for the next values; noted with them: source organism: Vaccinia virus Copenhagen.
On to SLAIKNYYRK, for which the Kd was found to be 1770 nM.

Still in this experiment, the particulars now being: source organism: Vaccinia virus WR.
In the case of DLDKVYEILK, the Kd was determined as 1300 nM.
For the sequence AAGIIILMEY, the Kd worked out at 1200 nM.
For SIILANERY, the Kd came to 607 nM.
For the sequence GTIAGGVCY, the Kd was 7900 nM.
Regarding SIGNVTRLFY, the Kd amounted to 2050 nM.
With KALMQLTTK, the Kd was found to be 5800 nM.
Consider SARNKLFKR, for which the Kd was found to be 441 nM.
In the case of LILSNKLLY, the Kd came to 5470 nM.
As to RLTDTEYRAR, the Kd was 822 nM.
As to FISDNKKEYK, the Kd is 11.3 nM.
Turning to DIVNEHDIK, the Kd is 3670 nM.
With EFCVDHPFIY, the Kd was no less than 54700 nM.
Same read-out and setting: the figure for YVKALTKNY is 1800 nM.
As for VFIHMVRCCK, the Kd is no less than 24500 nM.
With IFYFISIYSR, the Kd is 38.9 nM.
Consider SMGFKVTTR, for which the dissociation constant Kd came to 1270 nM.
As for TSASEIKDR, the Kd turned out to be 9.93 nM.
As for GVEDTESIER, the Kd turned out to be 1840 nM.
Still for that read-out and setting: the figure for YSKKFQESFY is 1780 nM; for LILNFLDWIK it is 165 nM.
In the case of PFEKEFTSDY, the Kd was no less than 70200 nM.

The target in the next experiment is HLA-A*02:02. The experiment is described as above. The note with it: source organism: Mammarenavirus guanaritoense.
On to YCNYTRFWYI, for which the Kd is 1050 nM.

Staying with this experiment, now noted: source organism: Vaccinia virus WR.
On to LTSVDIETA, for which the Kd was determined as 4920 nM.
In the case of LMLHNPTSET, the Kd was no less than 39300 nM.
As to ATLNTLITL, the Kd is 373 nM.
EVIERINLLV: the Kd is 19700 nM.
For the sequence YVILKDPRI, the Kd turned out to be 1550 nM.
As to SLEATFIDV, the Kd was 34.9 nM.
Regarding EVTPEYIKDL, the Kd is 1520 nM.
For the sequence DVFRPLFDFV, the Kd worked out at 1020 nM.
LLWFLTGTFV: the Kd worked out at 2.42 nM.
Regarding SMYVIPDEL, the Kd is 5.02 nM.
As to TLIQYRQQL, the Kd is 128 nM.
Same read-out and setting: the figure for NIFMTLVPV is 86.2 nM; for ILQMREIIT it is 4100 nM; for LTPFEKEFT it is 16800 nM.
With TVEFDRDKVV, the Kd is 16200 nM.
For the sequence LISLINSLV, the Kd was found to be 0.478 nM.
Turning to AITLVVISVI, the Kd is 406 nM.
Regarding LLKCVSDSWL, the Kd is 75.5 nM.
In the case of HVLLPFYETL, the Kd stood at 29.4 nM.

A further experiment concerns the target HLA-A*11:01. The description is as above. The conditions noted are these: source organism: Mammarenavirus juninense.
As to PLLCNLNKSH, the Kd is no less than 69700 nM.
Take SWPVQCPLDH: the Kd is no less than 69700 nM.

The experiment is the same for the next values; noted with them: source organism: Mammarenavirus lassaense.
With HSYAGDAAEH, the Kd is 17700 nM.
With SGSCLNNEK, the Kd turned out to be 556 nM.

Staying with this experiment, now noted: source organism: SARS coronavirus Tor2.
As to RLYECLYRNR, the Kd is 596 nM.
With VLAYMLFTK, the Kd came to 0.894 nM.
Take NVYADSFVVK: the Kd was found to be 101 nM.

Still in this experiment, the particulars now being: source organism: Vaccinia virus Copenhagen.
As for SLAIKNYYRK, the equilibrium dissociation constant (Kd) came out at 10.6 nM.

Still in this experiment, the particulars now being: source organism: Vaccinia virus WR.
For the sequence DLDKVYEILK, the Kd came to 751 nM.
AAGIIILMEY: the Kd is 1340 nM.
As to SIILANERY, the dissociation constant Kd was found to be 233 nM.
For GTIAGGVCY, the Kd was 69.7 nM.
For the sequence SIGNVTRLFY, the Kd was 25 nM.
Take KALMQLTTK: the Kd turned out to be 87.9 nM.
Take SARNKLFKR: the Kd was found to be 5710 nM.
Regarding LILSNKLLY, the dissociation constant Kd worked out at 192 nM.
Consider RLTDTEYRAR, for which the Kd came out at 794 nM.
With FISDNKKEYK, the Kd was 47.5 nM.
Still for that read-out and setting: the figure for DIVNEHDIK is no less than 77900 nM.
As to EFCVDHPFIY, the Kd worked out at 11000 nM.
In the case of YVKALTKNY, the Kd was found to be 12700 nM.
Still for that read-out and setting: under VFIHMVRCCK stands 4820 nM; under IFYFISIYSR, 4180 nM; under SMGFKVTTR, 4730 nM.
With TSASEIKDR, the Kd was determined as 1680 nM.
Still for that read-out and setting: under GVEDTESIER stands 948 nM; under YSKKFQESFY, 7410 nM; under LILNFLDWIK, 9.27 nM.
With PFEKEFTSDY, the Kd is no less than 69800 nM.

In the next experiment the target is HLA-A*02:06. The experiment is described as above. The note with it: source organism: Dengue virus 1 Brazil/97-11/1997.
In the case of WALRHPGFTV, the Kd came to 83.7 nM.

Still in this experiment, the particulars now being: source organism: Dengue virus 2 Jamaica/1409/1983.
With RALIFILLTA, the Kd stood at 140 nM.
Regarding ASAWTLYAV, the Kd was 8.11 nM.

Still in this experiment, the particulars now being: source organism: Dengue virus 3 Martinique/1243/1999.
As to FVVTTDISEM, the Kd stood at 297 nM.

Still in this experiment, the particulars now being: source organism: Homo sapiens.
With ELNGKNIEDV, the Kd is no less than 69800 nM.

The same experiment, now with this note: source organism: Mammarenavirus guanaritoense.
Regarding YCNYTRFWYI, the Kd was 81.4 nM.

Still in this experiment, the particulars now being: source organism: Vaccinia virus WR.
As to LTSVDIETA, the equilibrium dissociation constant (Kd) turned out to be 311 nM.
With LMLHNPTSET, the Kd came to 11100 nM.
Still for that read-out and setting: the figure for ATLNTLITL is 9.59 nM; for EVIERINLLV it is 300 nM.
Same read-out and setting: under YVILKDPRI stands 11.7 nM; under SLEATFIDV, 10.3 nM.
Same read-out and setting: under EVTPEYIKDL stands 7670 nM.
With DVFRPLFDFV, the Kd was 232 nM.
Regarding LLWFLTGTFV, the Kd came to 18 nM.
With SMYVIPDEL, the Kd amounted to 2820 nM.
On to TLIQYRQQL, for which the Kd came to 1880 nM.
For NIFMTLVPV, the Kd amounted to 227 nM.
ILQMREIIT: the Kd worked out at 1230 nM.
Regarding LTPFEKEFT, the Kd was no less than 77100 nM.
Same read-out and setting: under TVEFDRDKVV stands no less than 30800 nM; under LISLINSLV, 72.4 nM; under AITLVVISVI, 2000 nM.
Turning to LLKCVSDSWL, the Kd worked out at 4730 nM.
With HVLLPFYETL, the Kd amounted to 115 nM.

A further experiment concerns the target HLA-A*03:01. The experiment is described as above. The note with it: source organism: Mammarenavirus juninense.
As to PLLCNLNKSH, the Kd was no less than 70 µM.
As for SWPVQCPLDH, the Kd is no less than 70 µM.

The same experiment, now with this note: source organism: Mammarenavirus lassaense.
With HSYAGDAAEH, the Kd was 1.48 µM.
